test system: Escherichia coli TOP10; test: shrunken log2 fold change of peptide-encoding DNA abundance (4.5 h post-induction vs induction); higher = less antimicrobial activity (less host growth inhibition); conditions: time post-induction: 4.5 h; library: site-saturation at positions 5, 18, 19, 20
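Note: peptides expressed intracellularly from a pBAD plasmid library in pooled LB shake-flask culture, induced with 0.3% L-arabinose, DNA abundance read by NGS, three biological replicates, DESeq2 with apeglm shrinkage.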

Row | Sequence | shrunken log2 fold change
1 | RRIRVRPPRLPRPRPRPCLMPRP | -0.178
2 | RRIRVRPPRLPRPRPRPCNAPRP | -0.184
3 | RRIRVRPPRLPRPRPRPCNPPRP | -0.182
4 | RRIRVRPPRLPRPRPRPCNQPRP | 0.0169
5 | RRIRVRPPRLPRPRPRPCNWPRP | -0.327
6 | RRIRVRPPRLPRPRPRPCREPRP | -0.0897
7 | RRIRVRPPRLPRPRPRPCRNPRP | -0.0211
8 | RRIRVRPPRLPRPRPRPCSNPRP | -0.411
9 | RRIRVRPPRLPRPRPRPCVEPRP | 0.0543
10 | RRIRVRPPRLPRPRPRPCWCPRP | 0.0389
11 | RRIRVRPPRLPRPRPRPCWGPRP | -0.0908
12 | RRIRVRPPRLPRPRPRPCWQPRP | -0.0523
13 | RRIRVRPPRLPRPRPRPCWWPRP | 0.297
14 | RRIRVRPPRLPRPRPRPCYRPRP | -0.00925
15 | RRIRVRPPRLPRPRPRPDAEPRP | 0.431
16 | RRIRVRPPRLPRPRPRPDALPRP | -0.0285
17 | RRIRVRPPRLPRPRPRPDFYPRP | -0.25
18 | RRIRVRPPRLPRPRPRPDHDPRP | -0.485
19 | RRIRVRPPRLPRPRPRPDHSPRP | -0.252
20 | RRIRVRPPRLPRPRPRPDIMPRP | -0.18
21 | RRIRVRPPRLPRPRPRPDITPRP | -0.305
22 | RRIRVRPPRLPRPRPRPDKAPRP | -0.0129
23 | RRIRVRPPRLPRPRPRPDKNPRP | -0.12
24 | RRIRVRPPRLPRPRPRPDLHPRP | -0.0023
25 | RRIRVRPPRLPRPRPRPDMAPRP | 0.00912

Row | Sequence | shrunken log2 fold change
26 | RRIRVRPPRLPRPRPRPDMIPRP | -0.0118
27 | RRIRVRPPRLPRPRPRPDMPPRP | -0.264
28 | RRIRVRPPRLPRPRPRPDMWPRP | -0.499
29 | RRIRVRPPRLPRPRPRPDNAPRP | -0.501
30 | RRIRVRPPRLPRPRPRPDPFPRP | 0.0836
31 | RRIRVRPPRLPRPRPRPDQPPRP | 0.166
32 | RRIRVRPPRLPRPRPRPDTIPRP | -0.00658
33 | RRIRVRPPRLPRPRPRPDTVPRP | -0.186
34 | RRIRVRPPRLPRPRPRPDTWPRP | -0.407
35 | RRIRVRPPRLPRPRPRPDVTPRP | -0.0394
36 | RRIRVRPPRLPRPRPRPDVVPRP | -0.36
37 | RRIRVRPPRLPRPRPRPDWCPRP | 0.0302
38 | RRIRVRPPRLPRPRPRPDWGPRP | 0.184
39 | RRIRVRPPRLPRPRPRPDWMPRP | -0.0942
40 | RRIRVRPPRLPRPRPRPDWWPRP | -0.0161
41 | RRIRVRPPRLPRPRPRPDYSPRP | -0.107
42 | RRIRVRPPRLPRPRPRPDYYPRP | -0.679
43 | RRIRVRPPRLPRPRPRPEAFPRP | 0.143
44 | RRIRVRPPRLPRPRPRPEAHPRP | 0.0146
45 | RRIRVRPPRLPRPRPRPEAWPRP | 0.181
46 | RRIRVRPPRLPRPRPRPEAYPRP | -0.0262
47 | RRIRVRPPRLPRPRPRPECDPRP | 0.247
48 | RRIRVRPPRLPRPRPRPEDWPRP | 0.354
49 | RRIRVRPPRLPRPRPRPEEGPRP | -0.01
50 | RRIRVRPPRLPRPRPRPEFWPRP | 0.439

Row | Sequence | shrunken log2 fold change
51 | RRIRVRPPRLPRPRPRPEGCPRP | 0.132
52 | RRIRVRPPRLPRPRPRPEIDPRP | 0.135
53 | RRIRVRPPRLPRPRPRPEKGPRP | -0.09
54 | RRIRVRPPRLPRPRPRPELHPRP | 0.133
55 | RRIRVRPPRLPRPRPRPELIPRP | 0.0562
56 | RRIRVRPPRLPRPRPRPEMHPRP | 0.209
57 | RRIRVRPPRLPRPRPRPEMPPRP | 0.0341
58 | RRIRVRPPRLPRPRPRPENLPRP | -0.111
59 | RRIRVRPPRLPRPRPRPEPFPRP | 0.0811
60 | RRIRVRPPRLPRPRPRPEPTPRP | 0.0442
61 | RRIRVRPPRLPRPRPRPERGPRP | 0.416
62 | RRIRVRPPRLPRPRPRPESRPRP | -0.0259
63 | RRIRVRPPRLPRPRPRPETRPRP | 0.577
64 | RRIRVRPPRLPRPRPRPETWPRP | 0.0351
65 | RRIRVRPPRLPRPRPRPEYNPRP | -0.185
66 | RRIRVRPPRLPRPRPRPEYVPRP | -0.153
67 | RRIRVRPPRLPRPRPRPFAEPRP | 0.171
68 | RRIRVRPPRLPRPRPRPFCTPRP | -0.389
69 | RRIRVRPPRLPRPRPRPFDKPRP | -0.0577
70 | RRIRVRPPRLPRPRPRPFDLPRP | -0.24
71 | RRIRVRPPRLPRPRPRPFENPRP | -0.0486
72 | RRIRVRPPRLPRPRPRPFESPRP | -0.0298
73 | RRIRVRPPRLPRPRPRPFFPPRP | -0.0751
74 | RRIRVRPPRLPRPRPRPFHIPRP | -0.527
75 | RRIRVRPPRLPRPRPRPFHWPRP | -0.0122

Row | Sequence | shrunken log2 fold change
76 | RRIRVRPPRLPRPRPRPFLRPRP | -0.563
77 | RRIRVRPPRLPRPRPRPFMFPRP | -0.433
78 | RRIRVRPPRLPRPRPRPFMIPRP | -0.256
79 | RRIRVRPPRLPRPRPRPFMVPRP | -0.43
80 | RRIRVRPPRLPRPRPRPFNHPRP | -0.106
81 | RRIRVRPPRLPRPRPRPFNPPRP | -0.484
82 | RRIRVRPPRLPRPRPRPFPEPRP | -0.24
83 | RRIRVRPPRLPRPRPRPFQSPRP | -0.00568
84 | RRIRVRPPRLPRPRPRPFRAPRP | -0.0855
85 | RRIRVRPPRLPRPRPRPFRNPRP | -0.0529
86 | RRIRVRPPRLPRPRPRPFRSPRP | -0.267
87 | RRIRVRPPRLPRPRPRPFWPPRP | 0.162
88 | RRIRVRPPRLPRPRPRPGEEPRP | 0.00621
89 | RRIRVRPPRLPRPRPRPGGQPRP | -0.0141
90 | RRIRVRPPRLPRPRPRPGHHPRP | 0.00137
91 | RRIRVRPPRLPRPRPRPGIFPRP | -0.0463
92 | RRIRVRPPRLPRPRPRPGIIPRP | 0.136
93 | RRIRVRPPRLPRPRPRPGINPRP | -0.0188
94 | RRIRVRPPRLPRPRPRPGLCPRP | 0.0795
95 | RRIRVRPPRLPRPRPRPGLQPRP | 0.478
96 | RRIRVRPPRLPRPRPRPGMEPRP | 0.232
97 | RRIRVRPPRLPRPRPRPGNPPRP | -0.104
98 | RRIRVRPPRLPRPRPRPGPAPRP | 0.407
99 | RRIRVRPPRLPRPRPRPGQAPRP | -0.0106
100 | RRIRVRPPRLPRPRPRPGQIPRP | -0.0586

Row | Sequence | shrunken log2 fold change
101 | RRIRVRPPRLPRPRPRPGQKPRP | 0.00253
102 | RRIRVRPPRLPRPRPRPGSWPRP | 0.463
103 | RRIRVRPPRLPRPRPRPGTDPRP | -0.117
104 | RRIRVRPPRLPRPRPRPGTEPRP | 0.0578
105 | RRIRVRPPRLPRPRPRPGTPPRP | -0.00585
106 | RRIRVRPPRLPRPRPRPGVEPRP | 0.243
107 | RRIRVRPPRLPRPRPRPGWCPRP | 0.146
108 | RRIRVRPPRLPRPRPRPGYMPRP | -0.37
109 | RRIRVRPPRLPRPRPRPGYVPRP | -0.351
110 | RRIRVRPPRLPRPRPRPHAIPRP | -0.0728
111 | RRIRVRPPRLPRPRPRPHAKPRP | 0.0066
112 | RRIRVRPPRLPRPRPRPHAWPRP | 0.0267
113 | RRIRVRPPRLPRPRPRPHCGPRP | -0.309
114 | RRIRVRPPRLPRPRPRPHCSPRP | -0.0738
115 | RRIRVRPPRLPRPRPRPHDHPRP | -0.244
116 | RRIRVRPPRLPRPRPRPHDTPRP | -0.212
117 | RRIRVRPPRLPRPRPRPHECPRP | -0.0944
118 | RRIRVRPPRLPRPRPRPHGLPRP | 0.0861
119 | RRIRVRPPRLPRPRPRPHGPPRP | -0.156
120 | RRIRVRPPRLPRPRPRPHHHPRP | -0.611
121 | RRIRVRPPRLPRPRPRPHIFPRP | -0.547
122 | RRIRVRPPRLPRPRPRPHILPRP | -0.234
123 | RRIRVRPPRLPRPRPRPHKGPRP | -0.0569
124 | RRIRVRPPRLPRPRPRPHKVPRP | -0.331
125 | RRIRVRPPRLPRPRPRPHMGPRP | -0.302

Row | Sequence | shrunken log2 fold change
126 | RRIRVRPPRLPRPRPRPHPNPRP | -0.00326
127 | RRIRVRPPRLPRPRPRPHQGPRP | 0.105
128 | RRIRVRPPRLPRPRPRPHSTPRP | -0.418
129 | RRIRVRPPRLPRPRPRPHVLPRP | -0.067
130 | RRIRVRPPRLPRPRPRPHVRPRP | -0.0188
131 | RRIRVRPPRLPRPRPRPHVSPRP | 0.108
132 | RRIRVRPPRLPRPRPRPHWNPRP | -0.343
133 | RRIRVRPPRLPRPRPRPHYFPRP | -0.00578
134 | RRIRVRPPRLPRPRPRPHYLPRP | 0.00696
135 | RRIRVRPPRLPRPRPRPIAMPRP | -0.0565
136 | RRIRVRPPRLPRPRPRPIARPRP | 0.0436
137 | RRIRVRPPRLPRPRPRPICKPRP | -0.149
138 | RRIRVRPPRLPRPRPRPICMPRP | -0.0265
139 | RRIRVRPPRLPRPRPRPICQPRP | -0.188
140 | RRIRVRPPRLPRPRPRPIDDPRP | -0.14
141 | RRIRVRPPRLPRPRPRPIDMPRP | -0.0698
142 | RRIRVRPPRLPRPRPRPIFFPRP | 0.125
143 | RRIRVRPPRLPRPRPRPIFGPRP | -0.015
144 | RRIRVRPPRLPRPRPRPIGIPRP | -0.415
145 | RRIRVRPPRLPRPRPRPIHDPRP | -0.0895
146 | RRIRVRPPRLPRPRPRPIHIPRP | -1.11
147 | RRIRVRPPRLPRPRPRPIHWPRP | -0.131
148 | RRIRVRPPRLPRPRPRPIISPRP | -0.418
149 | RRIRVRPPRLPRPRPRPIKCPRP | -0.633
150 | RRIRVRPPRLPRPRPRPIKGPRP | -0.155

From the supplement of paper PMC9112550, “Optimization of the antimicrobial peptide Bac7 by deep mutational scanning” (BMC Biology, 2022)
